Reference: patent US20170247448A1 (INTRINSIC LIFESCIENCES, published 2017)

Columns and labels:
[1] = target: T1, BAP070-01 (human-mouse chimeric MAb 583); assay: C-ELISA, BAP070-01 supernatant on Protein G; competitor NT-biotin hepcidin-25; four parameter fit
T1 construct: used as CHO cell supernatant; also called BAP070-1
Description: The plate was washed with TBST and one (1) ng/well of NT-biotin hepcidin-25 was mixed with different amounts (0-100 ng) of synthetic hepcidin-25 standard in TBST, 0.25% BLOTTO and added onto the plate to bind competitively. The plate was washed with TBST and SA-HRP (1:2500) added and allowed to bind for 1 hour.
The plate was washed with TBST and […] substrate added and the reaction stopped after 10 minutes with stop solution. Absorbance at 450 nm was measured on a spectrophotometer.

[2] = target: T1, BAP070-01 (human-mouse chimeric MAb 583); assay: C-ELISA on goat anti-human Fc coat, hepcidin titrated against a labelled tracer not named for this figure
BAP070-hum01 = target: T2, BAP070-hum01; assay: as above
T2 construct: Expressed as soluble IgG1 in CHO cells, tested as supernatant; The entries stop inside FR4 (...WGQG / ...FG); also called humanized hit 1
T2 sequence (VH, as listed by the source, chain 1 of 2): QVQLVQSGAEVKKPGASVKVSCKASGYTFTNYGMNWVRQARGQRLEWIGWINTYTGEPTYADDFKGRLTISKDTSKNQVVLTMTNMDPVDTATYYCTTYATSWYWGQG
T2 sequence (VL, as listed by the source, chain 2 of 2): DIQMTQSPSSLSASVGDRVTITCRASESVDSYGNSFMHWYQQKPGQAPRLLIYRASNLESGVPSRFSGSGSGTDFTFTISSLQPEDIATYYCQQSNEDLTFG

BAP070-hum02 = target: T3, BAP070-hum02; assay: as above
T3 construct: Expressed as soluble IgG1 in CHO cells, tested as supernatant; The entries stop inside FR4
T3 sequence (VL, as listed by the source, chain 2 of 2): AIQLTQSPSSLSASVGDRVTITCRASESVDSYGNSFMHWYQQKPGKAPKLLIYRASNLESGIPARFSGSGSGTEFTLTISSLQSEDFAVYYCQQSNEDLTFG

BAP070-hum03 = target: T4, BAP070-hum03; assay: as above
T4 construct: Expressed as soluble IgG1 in CHO cells, tested as supernatant; The entries stop inside FR4
T4 sequence (VH, as listed by the source, chain 1 of 2): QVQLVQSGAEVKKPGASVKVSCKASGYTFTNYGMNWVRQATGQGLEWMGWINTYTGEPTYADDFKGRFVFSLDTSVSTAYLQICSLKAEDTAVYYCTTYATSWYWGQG
T4 sequence (VL, as listed by the source, chain 2 of 2): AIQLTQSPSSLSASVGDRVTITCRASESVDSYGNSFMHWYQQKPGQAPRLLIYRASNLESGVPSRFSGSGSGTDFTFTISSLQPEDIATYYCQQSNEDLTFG

BAP070-hum04 = target: T5, BAP070-hum04; assay: as above
T5 construct: Expressed as soluble IgG1 in CHO cells, tested as supernatant; The entries stop inside FR4
T5 sequence (VL, as listed by the source, chain 2 of 2): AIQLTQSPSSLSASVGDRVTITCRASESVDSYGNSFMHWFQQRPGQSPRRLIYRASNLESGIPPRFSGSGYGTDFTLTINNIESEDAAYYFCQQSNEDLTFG

BAP070-hum05 = target: T6, BAP070-hum05; assay: as above
T6 construct: Expressed as soluble IgG1 in CHO cells, tested as supernatant; The entries stop inside FR4
T6 sequence (VH, as listed by the source, chain 1 of 2): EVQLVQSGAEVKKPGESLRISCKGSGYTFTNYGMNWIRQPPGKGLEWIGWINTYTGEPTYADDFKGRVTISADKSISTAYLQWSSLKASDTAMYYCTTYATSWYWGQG

BAP070-hum06 = target: T7, BAP070-hum06; assay: as above
T7 construct: Expressed as soluble IgG1 in CHO cells, tested as supernatant; The entries stop inside FR4

T1 sequence (VH, as listed by the source, chain 1 of 2): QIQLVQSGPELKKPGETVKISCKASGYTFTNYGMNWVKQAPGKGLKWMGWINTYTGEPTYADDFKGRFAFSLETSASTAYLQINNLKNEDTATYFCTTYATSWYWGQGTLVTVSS
T1 sequence (VL, as listed by the source, chain 2 of 2): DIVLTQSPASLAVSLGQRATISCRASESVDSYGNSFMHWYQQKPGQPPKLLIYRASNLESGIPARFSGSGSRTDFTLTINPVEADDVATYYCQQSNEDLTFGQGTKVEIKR

B1: Human hepcidin peptide (hepcidin-25) (peptide)
peptide: DTHFPICIFCCGCCHRSKCGMCCKT
notes: Synthetic 25 aa peptide; also called hep-25; Hep-25
- EC50 [1]: 0.054 µg/mL
- IC50 (read off the curve) [2]: ~2 ng/well
- IC50 (read off the curve) (BAP070-hum01): ~2 ng/well
- IC50 (read off the curve) (BAP070-hum02): ~2 ng/well
- IC50 (read off the curve) (BAP070-hum03): ~2 ng/well
- IC50 (read off the curve) (BAP070-hum04): ~2 ng/well
- IC50 (read off the curve) (BAP070-hum05): ~2 ng/well
- IC50 (read off the curve) (BAP070-hum06): ~2 ng/well
